Experimental data published in patent US20260209362A1 (VIB VZW, published 2026).
Positions count from the first letter of the chain named.

T1: biotinylated recombinant human IL-12Rβ2 (human, UniProt Q99665 24-622, random biotinylated)
T1 construct: Recombinant protein produced in-house, biotinylated; also called hIL-12RB2; human IL-12RB2
T1 sequence: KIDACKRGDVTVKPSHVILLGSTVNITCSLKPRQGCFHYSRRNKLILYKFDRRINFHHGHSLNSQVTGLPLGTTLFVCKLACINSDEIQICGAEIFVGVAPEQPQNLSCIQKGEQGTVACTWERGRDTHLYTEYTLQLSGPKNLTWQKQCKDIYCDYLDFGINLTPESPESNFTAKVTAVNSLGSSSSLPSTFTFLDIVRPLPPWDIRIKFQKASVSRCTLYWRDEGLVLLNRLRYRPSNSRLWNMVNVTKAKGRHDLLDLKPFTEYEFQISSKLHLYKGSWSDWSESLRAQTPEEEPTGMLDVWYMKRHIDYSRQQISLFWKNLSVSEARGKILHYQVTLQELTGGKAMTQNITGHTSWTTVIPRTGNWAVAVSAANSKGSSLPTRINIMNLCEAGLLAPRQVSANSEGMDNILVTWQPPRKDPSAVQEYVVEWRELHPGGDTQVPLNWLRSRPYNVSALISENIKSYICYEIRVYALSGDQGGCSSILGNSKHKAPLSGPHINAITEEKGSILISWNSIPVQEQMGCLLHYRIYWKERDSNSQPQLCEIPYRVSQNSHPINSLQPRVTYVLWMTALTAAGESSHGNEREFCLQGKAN

T2: biotinylated recombinant mouse IL-12Rβ2 (mouse, UniProt P97378 24-637, random biotinylated)
T2 construct: Recombinant protein produced in-house, biotinylated; also called mIL-12RB2; mouse IL-12RB2
T2 sequence: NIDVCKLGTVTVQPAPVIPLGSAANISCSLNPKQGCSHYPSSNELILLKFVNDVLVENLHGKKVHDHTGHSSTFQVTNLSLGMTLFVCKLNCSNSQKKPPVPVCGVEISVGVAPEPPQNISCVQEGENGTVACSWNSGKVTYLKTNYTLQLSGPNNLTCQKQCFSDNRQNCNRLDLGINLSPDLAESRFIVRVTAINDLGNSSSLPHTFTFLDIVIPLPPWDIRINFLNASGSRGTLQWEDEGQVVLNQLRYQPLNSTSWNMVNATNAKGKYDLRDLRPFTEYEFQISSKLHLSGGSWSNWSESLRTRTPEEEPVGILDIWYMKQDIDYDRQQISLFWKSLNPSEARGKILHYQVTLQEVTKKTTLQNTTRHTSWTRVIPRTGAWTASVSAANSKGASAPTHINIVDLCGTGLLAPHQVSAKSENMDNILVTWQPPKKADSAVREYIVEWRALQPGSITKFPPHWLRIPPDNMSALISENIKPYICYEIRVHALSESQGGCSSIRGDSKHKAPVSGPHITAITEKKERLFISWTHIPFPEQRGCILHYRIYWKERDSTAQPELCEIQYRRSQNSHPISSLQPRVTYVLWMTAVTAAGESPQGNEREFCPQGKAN

B1: anti-IL-12Rβ2 VHH clone 21055 (VHH, not shown: small tags and cut ends)
VHH: QVQLQESGGGLVQAGGSLRLSCAASGRTFSKSTMGWFRQTPGKEREFVAAITWTDTEVYANSVKDRFTISRDNAKNTFYLQMHSLKLEDTAVYYCAGDRYGSSRDSVFSSPTNYPYWGQGTQVTVSS
notes: tested as periplasmic extract; also called 3CRHM20
B2: anti-IL-12Rβ2 VHH clone 21052 (VHH, not shown: small tags and cut ends)
VHH: QVQLQESGGGSVQAGGSLRLSCAVSGRTVSDYAMGWFRQAPGKEREFVAAMSSSETTVYPNSVKGRITISRDNAKNAVYLQMNALKPEDTAVYYCSMGPIVTFQGLARQNEYHYWGQGTQVTVSS
notes: tested as periplasmic extract; also called 3CRHM12
B3: anti-IL-12Rβ2 VHH clone 21065 (VHH, not shown: small tags and cut ends)
VHH: B2 VHH with A49V, P60T, V101T
notes: tested as periplasmic extract; also called 3CRHM240
B4: anti-IL-12Rβ2 VHH clone 21063 (VHH, not shown: small tags and cut ends)
VHH: B2 VHH with T28P, M51L, S53A, E55D, Y79D, S96A, V101G
notes: tested as periplasmic extract; also called 3CRHM133
B5: anti-IL-12Rβ2 VHH clone 21051 (VHH, not shown: small tags and cut ends)
VHH: B2 VHH with V63M, M82L, V101A
notes: tested as periplasmic extract; also called 3CAHM40
B6: anti-IL-12Rβ2 VHH clone 21060 (VHH, not shown: small tags and cut ends)
VHH: QVQLQESGGGLVQAGGSLSLSCAASGSAFRLNFMGWYRQAPGKQRELVAAINSGGTEIYHDSVKGRFTISRDNADSTVWLQMNSLKPDDTAVYYCAADRGISWSKLAGGMDYWGKGTQVTVSS
notes: tested as periplasmic extract; also called 3CRHM73
B7: anti-IL-12Rβ2 VHH clone 21062 (VHH, not shown: small tags and cut ends)
VHH: QVQLQESGGGLVQPGGSLRLSCAASGISSSRLHVGWFRQSPGKEREFVAAISLSGGTQAYTDSVKGRFTISGDNVKNTAYLQMNSLRPEDTAVYYCAARERFIWTWSDLTYDYWGQGTQVTVSS
notes: tested as periplasmic extract; also called 3CRHM99

Target: CD20 (human) (UniProt P11836)
Assay: not given

Sequence of CD20 (human) (P11836 whole entry): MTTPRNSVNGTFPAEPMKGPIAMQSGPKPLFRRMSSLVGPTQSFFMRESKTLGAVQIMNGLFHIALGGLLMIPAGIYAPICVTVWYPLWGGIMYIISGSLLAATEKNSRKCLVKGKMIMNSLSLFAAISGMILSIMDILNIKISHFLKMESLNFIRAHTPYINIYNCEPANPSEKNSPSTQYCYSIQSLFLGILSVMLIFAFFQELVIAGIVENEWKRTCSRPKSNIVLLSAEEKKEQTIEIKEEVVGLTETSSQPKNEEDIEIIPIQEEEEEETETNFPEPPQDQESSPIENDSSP

| % Specific Cell Lysis at 0.00125 ug/mL | % Specific Cell Lysis at 0.025 ug/mL | % Specific Cell Lysis at 0.5 ug/mL | % Specific Cell Lysis at 10 ug/mL | Molecule |
| --- | --- | --- | --- | --- |
| 52.4% | 64.7% | 75.6% | 77.5% | Rituximab (antibody) |

Target: human IL-12Rβ2 expressed on cells (human) (UniProt Q99665)
Assay: not given

| % Specific Cell Lysis at 0.00125 ug/mL | % Specific Cell Lysis at 0.025 ug/mL | % Specific Cell Lysis at 0.5 ug/mL | % Specific Cell Lysis at 10 ug/mL | Molecule |
| --- | --- | --- | --- | --- |
| 47.5% | 50.4% | 48.7% | 44.6% | IgG1 (antibody) |

Target: T1, biotinylated recombinant human IL-12Rβ2
Assay: BLI (Octet), periplasmic extract on biotinylated hIL-12Rβ2 on streptavidin tips

| Response | Molecule |
| --- | --- |
| 1.18 | B1 |
| 1.32 | B2 |
| 1.5 | B3 |
| 1.13 | B4 |
| 1.32 | B5 |
| 1.45 | B6 |
| 1.45 | B7 |

Target: T2, biotinylated recombinant mouse IL-12Rβ2
Assay: BLI (Octet), periplasmic extract on biotinylated mIL-12Rβ2 on streptavidin tips

| Response | Molecule |
| --- | --- |
| 0.586 | B1 |
| 0.837 | B2 |
| 1.05 | B3 |
| 0.97 | B4 |
| 0.809 | B5 |
| 0.944 | B6 |
| 0.812 | B7 |

Target: T1, biotinylated recombinant human IL-12Rβ2
Assay: ELISA, periplasmic extract on biotinylated hIL-12Rβ2, signal over control wells

| ELISA binding hIL-12RB2/control | Molecule |
| --- | --- |
| 8.23 ratio | B1 |
| 7.28 ratio | B2 |
| 3.78 ratio | B3 |
| 3.46 ratio | B4 |
| 3.73 ratio | B5 |
| 6.9 ratio | B6 |
| 4.24 ratio | B7 |

Target: T2, biotinylated recombinant mouse IL-12Rβ2
Assay: ELISA, periplasmic extract on biotinylated mIL-12Rβ2, signal over control wells

| ELISA binding mIL-12RB2/control | Molecule |
| --- | --- |
| 20.2 ratio | B1 |
| 38.3 ratio | B2 |
| 5.72 ratio | B3 |
| 3.92 ratio | B4 |
| 11.9 ratio | B5 |
| 26.3 ratio | B6 |
| 5.24 ratio | B7 |

Target: T1, biotinylated recombinant human IL-12Rβ2
Assay: BLI (Octet), periplasmic extract on biotinylated hIL-12Rβ2 on streptavidin tips, 1:1 model

| koff | Molecule |
| --- | --- |
| 0.00486 s⁻¹ | B1 |
| 0.00547 s⁻¹ | B2 |
| 0.00457 s⁻¹ | B3 |
| 0.00389 s⁻¹ | B4 |
| 0.00578 s⁻¹ | B5 |
| 0.00605 s⁻¹ | B6 |
| 0.00634 s⁻¹ | B7 |

Target: T2, biotinylated recombinant mouse IL-12Rβ2
Assay: BLI (Octet), periplasmic extract on biotinylated mIL-12Rβ2 on streptavidin tips, 1:1 model

| koff | Molecule |
| --- | --- |
| 0.0059 s⁻¹ | B1 |
| 0.00599 s⁻¹ | B2 |
| 0.00483 s⁻¹ | B3 |
| 0.00667 s⁻¹ | B4 |
| 0.00644 s⁻¹ | B5 |
| 0.00605 s⁻¹ | B6 |
| 0.00671 s⁻¹ | B7 |
